The values below come from patent US20250288643A1.

For this assay, the target named is monkey CD47 on LLC-MK2 cells (rhesus monkey) (UniProt H9ERV1). In words: flow cytometry, LLC-MK2 cells.

Hu5F9-G4 (antibody): the EC50 (read off the curve) amounted to 0.06 nM.
